For assay [1], the system named is SW620-derived tumors. Kind of assay: SW620 mouse xenograft tumor model. Type of assay: in vivo. To be noted: single dose 20 mg/kg. How it is done:
Athymic nude mice (five mice per group) were subcutaneously inoculated with 5×10^6 HCT116, HT29, and SW620 cells followed by injection of 20 mg/kg Zt/g4-DM1 through tail vein. FIG. 4A: Tumor growth from HT29-luc2 or HCT116-luc2 cells was determined by measuring average photon intensity (left panel). SW620-derived tumor growth was monitored by measuring tumor volume (FIG. 4B) (right panel). FIG. 4C: Tumor images with photon emission or caliper measurement at day 16 are presented. The scale from minimal to maximal is set at 300 to 35,000 photons per second. The percentages of inhibition were calculated from the average photon emission (for HT29 and HCT116 cells) or tumor volume (for SW620 cells). […] The percentages of inhibition were calculated by a formula: (average tumor weight from Zt/g4-DM1 treated group/average tumor weight from control mice)×100%;
Mouse xenograft CRC model and anti-RON ADC treatment: All mice studies were approved by the institutional animal care committee. […] Bioluminescence from individual tumors was measured every four days using Caliper IVIS image system (PerkinElmer). Tumor volumes from SW620-derived tumors were measured according to a formula: V=pi/6×1.58×(length×width)^3/2 (18,33). […]
The inventors first determined the efficacy of a single dose of Zt/g4-DM1 at 20 mg/kg body weight on tumors derived from HCT116, HT29, and SW620 cells. […]

Assay [2] has as its system RON-negative LoVo cells. Kind of assay: Cell viability assay, LoVo. In kind it is cell-based, human. How it is done:
Cell viability and death assays: Cell viability 72 h after Zt/g4-DM1 treatment was determined by the MTT assay (22). Viable or dead cells were determined by the trypan blue exclusion assay. A total of 900 cells were counted from three individual wells to reach the percentages of dead cells.
The effect of Zt/g4-DM1 on cell viability was determined. […] The cells were treated with Zt/g4-DM1.

In assay [3] the test system is HT29-Luc2 xenograft tumor. Kind of assay: HT29-luc2 mouse xenograft tumor model. To be noted: for tumor growth inhibited: five injection regimen. In kind it is in vivo. Here is the method: Athymic nude mice (five mice per group) were subcutaneously inoculated with 5×10^6 HCT116, HT29, and SW620 cells followed by injection of 20 mg/kg Zt/g4-DM1 through tail vein. FIG. 4A: Tumor growth from HT29-luc2 or HCT116-luc2 cells was determined by measuring average photon intensity (left panel). SW620-derived tumor growth was monitored by measuring tumor volume (FIG. 4B) (right panel). FIG. 4C: Tumor images with photon emission or caliper measurement at day 16 are presented. The scale from minimal to maximal is set at 300 to 35,000 photons per second. The percentages of inhibition were calculated from the average photon emission (for HT29 and HCT116 cells) or tumor volume (for SW620 cells). FIG. 4D: Individual tumors from different groups were weighed at day 28. The percentages of inhibition were calculated by a formula: (average tumor weight from Zt/g4-DM1 treated group/average tumor weight from control mice)×100%;
FIGS. 5A to 5F show the evaluation of different doses of Zt/g4-DM1 on tumor growth and RON expression. FIG. 5A: Effect of multi-dose of Zt/g4-DM1 on tumor growth was tested in HT29 cell-induced tumors. Tumor-bearing mice were treated with different doses of Zt/g4-DM1 every four days for a total of five injections ( ? ). Tumor growth was determined by the average bioluminescence intensity. FIG. 5B: An IC50 value based on the average bioluminescence intensity from individual groups at day 31 was calculated using GraphPad Prism 6 software. FIG. 5C: Bioluminescence images of individual tumors from each group at day 31 are shown. The percentages of inhibition were calculated from the average photon emission. The color scale from minimal to maximal is set at 300 to 35,000 photons per second. FIG. 5D: Individual tumors from different groups were collected and weighed at day 31, 35, and 43, respectively. The percentages of inhibition were calculated as detailed in FIG. 4C. FIG. 5E: Samples of HT29 cell-derived xenograft tumors from both control and 15 mg/kg Zt/g4-DM1-treated mice at day 31 were processed for histological examination. […] FIG. 5F: Western blot analysis of RON expression in tumors samples from both control and 15 mg/kg Zt/g4-DM1-treated mice. Densitometry analysis was performed to determine the levels of RON expression;
Mouse xenograft CRC model and anti-RON ADC treatment: All mice studies were approved by the institutional animal care committee. Female athymic nude mice at 6 weeks of age (Taconic, Cranbury, N.J.) were injected with 5×10^6 HT29-Luc2, HCT116-luc2, or SW620 cells in the subcutaneous space of the right flank as previously described (18,33). Mice were randomized into different groups (five mice per group). […] The single-dose group received a tail vein injection of 20 mg/kg Zt/g4-DM1 in 0.1 ml PBS followed by observation for 28 days. The multi-dose study was performed by treating mice with Zt/g4-DM1 at 1, 3, 7, 10, and 15 mg/kg every four days for a total of five injections. Bioluminescence from individual tumors was measured every four days using Caliper IVIS image system (PerkinElmer). Tumor volumes from SW620-derived tumors were measured according to a formula: V=pi/6×1.58×(length×width)^3/2 (18,33). Animals were euthanized when tumor volumes exceeded 2000 mm^3 or if tumors became necrotic or ulcerated through the skin.
The inventors first determined the efficacy of a single dose of Zt/g4-DM1 at 20 mg/kg body weight on tumors derived from HCT116, HT29, and SW620 cells. Tumor growth by HCT116-luc2 and HT29-luc2 cells was measured by bioluminescence emitted from tumor cells. SW620-mediated tumors were evaluated by tumor volume (18,34).

In assay [4] the target is RON (Homo sapiens, UniProt Q04912). In words: Immunofluorescent localization of cytoplasmic RON in HT29 cells. Type of assay: cell-based. To be noted: 5 μg/ml, 6 h.
Assay [5] relates to HT29, HCT116, and SW620 cells. In words: Cell cycle analysis by flow cytometry. To be noted: 5 μg/ml. Type of assay: cell-based, human. (In flow cytometry, cells or beads pass a laser one at a time.)
Setting [6] is: 15 mg/kg every four days x5, day 31.

Here are results for one molecule from US20160311918A1, “Anti-Ron Monoclonal Antibodies as a Cytotoxic Drug Delivery System for Targeted Cancer Therapy” (TEXAS TECH UNIVERSITY SYSTEM, priority 2013, published 2016).

The term inhibition denotes the share of the control response that was lost under treatment. Low values mean a weak effect, high ones a strong effect.

Sequence of RON (Q04912 310-1400 limits assumed): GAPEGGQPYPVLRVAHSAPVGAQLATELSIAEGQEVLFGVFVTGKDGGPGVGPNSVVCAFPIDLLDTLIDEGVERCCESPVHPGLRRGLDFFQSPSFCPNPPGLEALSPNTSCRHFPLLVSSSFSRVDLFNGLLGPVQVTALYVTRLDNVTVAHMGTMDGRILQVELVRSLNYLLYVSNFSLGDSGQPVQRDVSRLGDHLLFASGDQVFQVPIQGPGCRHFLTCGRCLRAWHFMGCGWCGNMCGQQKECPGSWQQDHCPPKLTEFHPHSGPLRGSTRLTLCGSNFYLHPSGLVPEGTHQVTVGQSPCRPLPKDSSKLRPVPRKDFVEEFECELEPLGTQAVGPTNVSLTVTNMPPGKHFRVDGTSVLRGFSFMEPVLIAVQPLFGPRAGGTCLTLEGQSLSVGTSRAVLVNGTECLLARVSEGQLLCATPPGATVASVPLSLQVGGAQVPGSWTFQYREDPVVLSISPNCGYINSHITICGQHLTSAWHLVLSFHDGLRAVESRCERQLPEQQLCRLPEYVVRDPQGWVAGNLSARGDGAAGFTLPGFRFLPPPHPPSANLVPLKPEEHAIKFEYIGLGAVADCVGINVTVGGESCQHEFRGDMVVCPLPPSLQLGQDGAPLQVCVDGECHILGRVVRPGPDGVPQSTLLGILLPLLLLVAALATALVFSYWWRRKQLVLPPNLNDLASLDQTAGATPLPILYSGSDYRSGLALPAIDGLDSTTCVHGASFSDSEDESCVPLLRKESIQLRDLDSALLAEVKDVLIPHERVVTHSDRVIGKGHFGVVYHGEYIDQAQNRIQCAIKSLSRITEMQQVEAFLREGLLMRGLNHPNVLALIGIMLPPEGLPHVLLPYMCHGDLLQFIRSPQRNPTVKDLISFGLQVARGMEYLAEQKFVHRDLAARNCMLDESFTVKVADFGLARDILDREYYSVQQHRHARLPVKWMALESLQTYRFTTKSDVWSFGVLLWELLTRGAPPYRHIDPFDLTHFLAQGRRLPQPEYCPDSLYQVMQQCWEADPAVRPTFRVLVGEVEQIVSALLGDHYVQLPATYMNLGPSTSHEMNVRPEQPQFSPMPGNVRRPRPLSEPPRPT
Sequence of RON (Q04912 25-304 limits assumed): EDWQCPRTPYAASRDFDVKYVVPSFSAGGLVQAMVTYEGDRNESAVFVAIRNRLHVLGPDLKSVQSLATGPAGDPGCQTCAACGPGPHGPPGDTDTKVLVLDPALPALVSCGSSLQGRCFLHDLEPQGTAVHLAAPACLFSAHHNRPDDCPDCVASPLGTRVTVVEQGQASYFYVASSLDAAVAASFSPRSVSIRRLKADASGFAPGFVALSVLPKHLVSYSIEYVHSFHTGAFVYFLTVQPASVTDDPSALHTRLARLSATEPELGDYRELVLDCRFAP

B1: Zt/g4-DM1: anti-RON mouse mAb Zt/g4 conjugated to maytansinoid DM1 via non-reducible thioether linkage (SMCC), DAR about 4:1 (conjugate)
VH: EVQLQQSGAELVKPGASVKLSCTTSGFNIIDTYIHWVNQKPDQGLEWIGRIDPADGNRKSDPKFQVKATITVDTSSNTAYLQLSSLTSGDTAVYYCARGYGNLNAMDSWGQGTSVTVSS
VL: DIQMNQSPSSLSASLGDTITITCHASQNINVWLNWYQQKPGNIPKLLIYKASNLHTGVPSRFSGSGSGTGFTLTISSLQPEDIATYYCQQGQSYPLTFGGGTKLEIK
Consider B1, for which the “inhibition in tumor volume” value in assay [1] (day 16) is recorded as 82%. For the same molecule, the “inhibition rate by average tumor weight” value in assay [1] (day 28) is on record as 61.9%; in assay [3] (single dose 20 mg/kg, day 28), 50.98%. The “effect on cell viability” value in assay [2] is listed as “no effect”. The “inhibition of tumor growth” value in assay [3] (1 mg/kg every four days x5) and in assay [3] (3 mg/kg every four days x5) was “no inhibition of tumor growth” each time. Moreover, the “inhibition by average photon emission” value is on record as “more than 80%” in assay [3] (7 mg/kg every four days x5, day 19 to 43); “More than 95%” in assay [3] (10 mg/kg every four days x5, day 31); “More than 95%” in assay [3] (setting [6]). The “inhibition by tumor weight” value in assay [3] (7 mg/kg every four days x5, day 43) was “Significant inhibition was still observed”; in assay [3] (10 mg/kg every four days x5, day 43), “Significant inhibition was still observed”. The tumor growth inhibited entry in assay [3] (7 mg/kg), in assay [3] (10 mg/kg) and in assay [3] (15 mg/kg) was “more than 90%” throughout. Besides, the “inhibition at average tumor weight” value in assay [3] (setting [6]) was 90%. The “average percentage of dead areas in a tumor mass” value in assay [3] (15 mg/kg, day 31, H&E staining) was 65%±7.4. For the same molecule, in assay [3] (15 mg/kg, day 31, Western blot, control 100%), the “RON expression in treated tumors” value is recorded as 16.44%±5.75. Besides, in assay [3] (multi-dose, average photons at day 31), the “IC50 dose (dose achieving 50% tumor inhibition)” value is given as 5.01 mg/kg. Further, the “inhibition by average bioluminescence intensity” value in assay [3] (single dose 20 mg/kg, day 16) is “More than 95%”. Also, the “RON endocytosis by immunofluorescence” value in assay [4] was “intracellular localization of internalized RON occurred at 37 °C”. Besides, the “time at which cell cycle profile changes were observed” value in assay [5] is reported as at most 3 h. In addition, in assay [5] (three CRC cell lines), the “effect on cell cycle” value is “dramatic increase in G2/M phase”.
